# The DeepSol protein solubility set
# Assay: soluble on expression in E. coli; label from the status in PepcDB or PDB records
row,Sequence,soluble on expression in E. coli
1,MPCFFFILDTSGSMSTRAHPQFSFFDLAKNFIENFIKQRTKGDNRMMVGRETDKYFLMTTQARYPKNVKVACEKLGAVVIEEIKKLHLPYGSCQLHHAILEAFKVLHVSRVQTGIDGVGIGRLISNTEPVTMILLTDGSGVAGIPIDFRLFFDPPFLGSEMTRDAFRWDQKFYTVVFRIPSTPYRPTISQLTAIDIDMPVIERLCARTGGRSFSIVSPRQIQTTIDYLLAMGNQYKIGVRFECLPAIPAPITSDEVNLVKMKFKKVIDKRPVTNIISRLNPQARPVTCHWPIPESFFPMRTMDQLPQRTSHPVILCAPIALPLHIRPELPVDKLELEPGGISDIIMEILQGRKDMTVWTYMEGSSNGPTAPFGCLRMNTLGTGITLILMPFNFPMLYSLVEEIVKEPFLNKSQVWRSKLESYFHTVPFYYNTQIRVCLDKFDVKVDYSSSMSMFYPGQLLSNLNRFKAKAREELDQMAIASKLNDSKTLKIVNPSIRIERITSRSTIIGLGNSEVDIEDDSLEGYESTPIYAGDFKIPLYPPSITDAQLDSAYRTPYSSPIEDLTSKLNRIQANIELMFDPNKITLLDMAKLGTKARFNTLGLCFFHPIFLANSTSRKFYIQKFETLQVMDSAVVDNNSPSTSGQPKRFGGEGRQGGGPPKRRRGPLGIDAYDQYRIRRSMRGSSAGSDISDISSSLGTFDQDSDMTTPGTSGMNTPISEFDDLQLQEMDSDDQLMKNLDEVQALRKKEEAQVQPKIKKPPPVPPASILSSQEILTRKIRIGSIIRKPANHCAFEEIMTLVAGITQEACSQLIKYALRESQRFKLKQLTERLENRLKTV,not soluble
2,MPCRLRKITVYETKSRFYIIGCDSTGSRYNVLKIDRIDPKALITGEPEYDYTREEILELLATISDGSSVVYRSSSKKGTKSGLIERATNAFGILGCVRFVEGYYLIIITRAHAVATLGYHPVYKIVEVAMIPIAMDGVSTSSEEQKYVKLFQSVDLSTDFYFSYSYDMSRTFQENSLRSDWNNHGQRRLEADERFVWNSFLLEPLRKNLISERWFVEIVHGYVRQEYIFLPIGRISLTIIGRRSTKYAGTRFLKRGANPTGNVANYVETEQIVWDMASSGNVADGRFSSFVQMRGSVPMRWSQDPSTRGVVGKPLILIDNHEPHAQTAASHFRDVRNKYGNPIVIMNLIKRNEKRRHEGVLHTQFLKNIEYLNQFLPNEEKLCYISFDVARCNKAANSMPSINVLNVMEDLSMKSILKNGWFQSFPLSEALKIRPREAFATLDAHHSKDGRFMIQHGICRTNCVDCLDRTNVAQFVIAKVALGCQLCAMGILDEPNLTLQSEVCRLLEDMFDEHGDTMALQYAGSQLVHSIKTYKKTAAFQERRRDVFQTLSRYYSNTFNDWDKQMAINLFLGVFRPRITTMKNLWDLTSDYNLHFPYSLKINTDYCAWTLSEKELEDLVFLDYDESENSDGYVEIRSIDVDGRRGSEGSEYRTLLFSSHEDFRDYHRTYEFTSLDDRIGRLFSIENRAIQVDGINEEPTTHAQFLKLWKTTETKEKDQKKPNKKDKEEKESDDEDDDEEISTQWSDVVEAQQEWYDLVNAPGNVTTTLQKSPTKRESTPPRNTSRAKRSLLSTGLQFAKDIYHLDHLKTQPEERRYYEKYAITAFKCNVRDWEKVKPTLLSEFKITSEVEPRRPTFFTTDDCYRTESPEVSGNSARFYIKSSHPLTTECSAQDYGFFSKYMQAT,not soluble
3,MPCRLTRLFGIEFPIIQAPMAGVQGSALAIAVSEAGGLGSLPCAMLSLEALEAELTAIRSQTAKPINVNFFCHREPVAQAAKQAAWLEQLAPYFAEFNLDPNAQPAGAQRTPYSKAQAEVLAKFKPEVVSFHFGLPDEELLLEIKSWGSKVISTATTVEEALWLEARGADAIIAQGLEAGGHRGHFLSEDLTEQLGTFSLLPQIIAAVEIPVIAAGGIVDATTVRAAMTMGASAVQVGTAYLLCPECNTSAIHREALQSDAAQHTALTNLFSGRPARGIVNRFMAEMGPMNEAVPDFPLASSAVAGLRTAAERLGFWDFSPLWCGQNASGCRAIPAADLTRSFVLSLPSSCVEPQEKSGAAALEHHHHHH,not soluble
4,MPDLSAAEFTLLQGAHLFAPEDRGICDVLLANGKIIAVGAGIPGDIVPDCTVINLSGRMLCPGFIDQHVHLIGGGGEAGPTTRTPEVSLSRLTEAGITTVVGLLGTDSVSRHPASLLAKTRALNEEGITAWMLTGAYHVPSPTITGSVEKDVALIDRVIGVKCAVSDHRSAAPSGNQLASMAAESRVGGLLGGKPGVSVFHMGSSKKGLQPLYDILENSDVPIGKLLPTHVNRSESLFEQALAFALKGGVIDITTSIPDPVAPAEGIARAVKAGVPLSRVTLSSDGNGSQPLFDAAGNLTGIGVAGFESLLETLQTLVNHYGFSLANALRPLTTSVAAFLSLDGKGEIRPGNDADLLVFSADLRIEQVYARGKRMVNEGKACVKGTFEPA,not soluble
5,MPDSTRQPSAPVRDRLQQYGLSETEAETYLAVVEKGPATARTVAETAGVSKSYVYDICDSLAVDGFVSVDDHRTPTVIRATPPSEAFSALKRELDTLEAAVQTRYEDTAAENNTFEVVKSRPTIVKRLEQHIEAADCEVILQIPARRLPDIRDPLRRARERGILVLLTLSSYDRATMELDLKEIANAVRIGLDGAPSLLATDQQRGFVSPSTMLSWDHDETNAITFTQEAVAAVLVGSYLGNYWPIGEEVLVSRPPSLPARYDMFRPVVFTTTLALRAGESVVADLYARPTGSDDDFEVISGEVVDVRQNLVAPHNSDFGFENSLVVDTGDSRITVGGYGAFLEDYEVKHTTLRRA,not soluble
6,MPDYLVVLQAAWIVRKARSVEDAMNIAVAEAGKKLNPDLDFVKIDVGDTACPKCNSPLKAVFMVAGVALVGLIFEMKVFNAKSPEHAAKIAKYEIGKRMPRIPLEVIEVAEIE,not soluble
7,MPEGKIIKALSGFYYVLDESEDSDKVIQCRGRGIFRKNKITPLVGDYVVYQAENDKEGYLMEIKERTNELIRPPICNVDQAVLVFSAVQPSFSTALLDRFLVLVEANDIQPIICITKMDLIEDQDTEDTIQAYAEDYRNIGYDVYLTSSKDQDSLADIIPHFQDKTTVFAGQSGVGKSSLLNAISPELGLRTNEISEHLGRGKHTTRHVELIHTSGGLVADTPGFSSLEFTDIEEEELGYTFPDIREKSSSCKFRGCLHLKEPKCAVKQAVEDGELKQYRYDHYVEFMTEIKDRKPRY,not soluble
8,MPEITRRRALTAAAAVAATASAAVTLAAPAASAAGHHEPAAPESFDEVYKGRRIQGRPARGAAHHHEHGGGYEVFVDGVQLHVMRNADGSWISVVSHFDPVPTPRAAARAAVDELQGAPLLPFPANLEHHHHHH,soluble
9,MPELSETAERSQSNTPLAMIMDDSDIDYQRFQELVASTDSLAILCHDNPDPDTLASALALEAIAKEWEVPTVDIVYGGTVTHQQNRAMINVLDIELTPIDQVSLSDYGLVAFVDHGIPGQNNSAVEEMTPDIIIDHHPTDGLQGQFVDLRPAVGATATLLTRYLEIFSIELEERLATALLFALHRETLDFNRETTSTEHAAACVLHPHADHNIIEELTNSVFTPETISGIGDAIANREVRGSCLVSSLGWIRERDAVPQAADYLLQLEGVSTTIVYGIVDDNVHLSGRTSNSQLHIGNVMEETFDQVGSAGGHHDMAGGQVPLGFIGSVDDGDDVAIDLINQSMMARLFGALEGWTET,not soluble
10,MPEPHAVLYVTNELSHIVKNEFLPIWKLTGDESLNDLWLENGKYATDVYAYGDVSKWTIRQLRGHGFIFISTHKNVQLADIIKTVDVRVPREVARSHDMKAFENEIGRRRIRMRKGFGDALRNYAFKMAIEFHGSEAETLNDANPRLHKIYGMPEIPPLYMEYAEIGTRFDDEPTDEKLVSMLHYIVYSAEEVHYIGCGDLRTLMQFKKRSPGRFRRVLWHVYDPIAPECSDPNVIVHNIMVDSKKDILKHMNFLKRVERPFIWDVSSDRSQMNDHEWETTRFAEDRLGEEIAYEMGGAFSSALIKHRIPNSKDEYHCISTYLFPQPGADADMYELRNFMRLRGYSHVDRHMHPDASVTKVVSRDVRKMVELYHGRDCGSFLKKRLFEHLHIVRKNGLLHESDEPRADLFYLTNRCNMGLEPSIYEVMKKSVIATAWVGRAPLYDYDDFALPRSTVMLNGSYRDIRILDGNGAILFLMWRYPDIVKKDLTYDPAWAMNFAVSLKEPIPDPPVPDISLCRFIGLRVESSVLRVRNPTLHETADELKRMGLDLSGHLYVTLMSGAYVTDLFWWFKMILDWSAQNREQKLRDLKRSAAEVIEWKEQMAERPWHVRNDLIAALREYKRKMGMREGASIDSWLELLRHL,soluble
11,MPFEIGTMPIMSIDPKLLEVLACPQDKGPLKYLEAEQVLVNERLEIAYRIDDGIPVMLVDESIAWPPAEKAAALEHHHHHH,not soluble
12,MPFKPVEHPKCPKCGKSVYAAEEMSAGGYKWHKFCFKCNMCNKLLDSCTVAPHEAELYCKQCHGRKFGPKGVGFGLGAGCLTTDSGEKFGGSKQT,not soluble
13,MPGLCTGPFAKGRCMSLLAQLDQKIAANGGLIVSCQPVPDSPLDKPEIVAAMALAAEQAGAVAIRIEGVANLQATRAVVSVPIIGIVKRDLEDSPVRITAYIEDVDALAQAGADIIAIDGTDRPRPVPVETLLARIHHHGLLAMTDCSTPEDGLACQKLGAEIIGTTLSGYTTPETPEEPDLALVKTLSDAGCRVIAEGRYNTPAQAADAMRHGAWAVTVGSAITRLEHICQWYNTAMKKAVL,soluble
14,MPGNHSEISLNEQNRVDDNDTKTKTTTRKKKKKKDVTIVDDDDNQFDTTNQLVKSKNRFLGKFRKKPKSPKRWSGSRKGGCFRVMRPRRREGGDDDSSVSSPVSDPNDERFSHEMLRVMLETNDFCSDECNPHR,soluble
15,MPIPAPSPDARAVVTGASQNIGAALATELAARGHHLIVTARREDVLTELAARLADKYRVTVDVRPADLADPQERSKLADELAARPISILCANAGTATFGPIASLDLAGEKTQVQLNAVAVHDLTLAVLPGMIERKAGGILISGSAAGNSPIPYNATYAATKAFVNTFSESLRGELRGSGVHVTVLAPGPVRTELPDASEASLVEKLVPDFLWISTEHTARVSLNALERNKMRVVPGLTSKAMSVASQYAPRAIVAPIVGAFYKRLGGS,not soluble
16,MPISYCVSAKKASVVVESVVGNFTGHENVNLIVARGNRIDVQLVSPEGLKNVCEIPIYGQVLTIALVKCKRDKRHSLIVVTEKWHMAILAYRDGKVVTRAAGCIADPTGRATDNLFSLTIHRNGLIAIRAFEGSVKMIQWESGTDLRHFNVRFDYPNVSDFKFVDTGEDDVYRVAFIYDDDHGKHLQFSDLNMHDKEFRTYSRQASIAADSSVLIPVPHAIGGVIVLGSNSVLYKPNDNLGEVVPYTCSLLENTTFTCHGIVDASGERFLLSDTDGRLLMLLLNVTESQSGYTVKEMRIDYLGETSIADSINYIDNGVVFVGSRLGDSQLIRLMTEPNGGSYSVILETYSNIGPIRDMVMVESDGQPQLVTCTGADKDGSLRVIRNGIGIDELASVDLAGVVGIFPIRLDSNADNYVIVSLSDETHVLQITGEELEDVKLLEINTDLPTIFASTLFGPNDSGIILQATEKQIRLMSSSGLSKFWEPTNGEIISKVSVNAANGQIVLAARDTVYLLTCIVDEMGALDIQLTAEKKFENEIACLDLSNEGDDPNNKATFLVLAFWSTFAMEVIQLPDLITVCHTDLPTKIIPRSIIATCIEEVHYLLVAFGDGALVYYVFDIKTGTHGEPKKSNVGTRPPSLHRVRNKNRQHLFVCSDRPVIIFSASKKLVFSNVNVKLVDTVCSLSSSAYRDCLVISDGNSMVFGTVDDIQKIHVRSIPMGESVLRIAYQKSTSTYGVCSNRTESKAERVFASKNALVTSQSRPKVASTRADMDESPPNTTSSFMVLDQNTFQVLHSHEFGPWETALSCISGQFTNDSSTYYVVGTGLIYPDETETKIGRIVVFEVDDVERSKLRRVHELVVRGSPLAIRILNGKLVAAINSSIRLFEWTTDKELRLECSSFNHVIALDLKVMNEEVAVADVMRSVSLLSYRMLEGNFEEVAKDWNSQWMVTCEFITAESILGGEAHLNLFTVEVDKTRPITDDGRYVLEPTGYWYLGELPKVMTRSTLVIQPEDSIIQYSQPIMFGTNQGTIGMIVQIDDKWKKFLIAIEKAIADSVKNCMHIEHSSYRTFVFQKRAEPPSGFVDGDLVESILDMDRSVAMDILSKVSDKGWDPSLPRDPVEILKVIEDLARMH,not soluble
